# Target: T1, CD4-TLR4 (UniProt O00206+P06332)
# T1 construct: forced dimerisation of TLR4 TIR domains in the absence of LPS (by overexpressing the fusion protein CD4-TLR4); CD4 (fusion partner); expressed in transfected cells; host or cells: HEK293_TLR4, transiently transfected with 50 or 100 ng CD4/TLR4-encoding plasmid
# T1 sequence (P06332+O00206 with tags, fused parts or gaps): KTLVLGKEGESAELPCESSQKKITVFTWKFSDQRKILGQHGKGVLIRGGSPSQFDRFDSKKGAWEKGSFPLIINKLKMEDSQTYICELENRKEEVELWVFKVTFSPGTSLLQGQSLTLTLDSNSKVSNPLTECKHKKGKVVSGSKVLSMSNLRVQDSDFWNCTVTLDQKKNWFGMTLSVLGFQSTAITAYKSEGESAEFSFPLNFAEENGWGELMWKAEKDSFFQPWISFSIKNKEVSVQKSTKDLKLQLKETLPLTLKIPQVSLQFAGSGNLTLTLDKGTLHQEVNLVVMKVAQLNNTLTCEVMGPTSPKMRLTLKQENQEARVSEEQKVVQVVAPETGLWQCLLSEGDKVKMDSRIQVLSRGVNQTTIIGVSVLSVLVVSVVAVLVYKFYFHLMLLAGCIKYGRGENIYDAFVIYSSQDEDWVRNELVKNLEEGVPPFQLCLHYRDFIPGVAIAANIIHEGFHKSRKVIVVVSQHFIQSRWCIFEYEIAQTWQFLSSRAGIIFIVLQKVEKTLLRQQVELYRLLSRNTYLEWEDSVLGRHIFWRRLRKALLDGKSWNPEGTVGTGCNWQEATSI
# Test: ligand-independent NFκB activation by overexpressed CD4-TLR4 in HEK293_TLR4 cells
# Format: cell-based
# Settings: 50 or 100 ng CD4/TLR4 plasmid, peptide 5 or 25 μM 2 or 9 hours after transfection
# Protocol: FIGS. 24A and B are bar charts showing the effect of A464 on ligand-independent TLR4 signalling in HEK293 cells. HEK293_TLR4 cells were seeded in 96 well plate (1.5×10^5 cells/ml) 24 hours before transfection with NFκB-luciferase and TK-Renilla reporter gene plasmids. NFκB activation was stimulated by transfecting either 50 or 100 ng of CD4/TLR4-encoding plasmid or by stimulating with 10 ng/ml LPS. The total amount of plasmid DNA transfected into the cells was made up to 230ng by adding pcDNA. A464 (SEQ ID NO. 20) was added to the cells at a concentration of 5 or 25 μM 2 hours (A) or 9 hours (B) after the transfection or LPS-stimulation. Cells were harvested and assayed for NFκB activation by reporter gene assay 24 hours post-transfection. No peptides were added to the control wells (black bars). Data is representative of two experiments, each performed in triplicate and is expressed as mean fold induction±s.d. relative to control levels;
# HEK293 cells were transfected using GeneJuice® a proprietary non-toxic transfection reagent. 200 μl/well cells at a density of 1×10^5 cells/ml were seeded the day before transfection. 0.8 μl of GeneJuice was mixed with 9.2 μl of serum-free DMEM (SFM) per transfection and incubated for 5 min at room temperature before adding the appropriate amount of the plasmid DNA. […] Luciferase activity was analysed using a luminometer. […]
sequence,measurement,value
KYSFKLILAEYRRRRRRRRR [Peptide A464],inhibition of NFκB activated by forced dimerisation of TLR4 TIR domains (CD4-TLR4),insensitive to inhibition

# — patent US8722052B2, “Vaccinia virus protein A46 peptide and use thereof” (priority 2008, dated 2014)
